Test results from patent US20140004122A1 (published 2014).
Each block holds one binder with its values, some of them ahead of it.

Key:
[1] = target: T1, cynomolgus monkey PCSK9, V5- and 6xHis-tagged (cynomolgus monkey, UniProt A0A7N9D9N8 150-747); assay: BIAcore SPR; antibody amine-coupled to CM5 chip, PCSK9 injected as analyte; pH 7.4
T1 construct: also called cPCSK9-V5-6xHIS; cPCSK9; not shown: V5 tag and 6xHis tag

[2] = target: T1, cynomolgus monkey PCSK9, V5- and …; assay: BIAcore solution equilibrium; PCSK9 mixed with 21B12.1, free PCSK9 measured on immobilised 21B12
[3] = target: T2, PCSK1 (R&D Systems) (UniProt P29120 111-753, limits assumed); assay: competition ELISA: 11F1 (0.4 µg/mL) pre-incubated with soluble convertase, then binding to plate-captured biotinylated PCSK9
T2 sequence (looked up): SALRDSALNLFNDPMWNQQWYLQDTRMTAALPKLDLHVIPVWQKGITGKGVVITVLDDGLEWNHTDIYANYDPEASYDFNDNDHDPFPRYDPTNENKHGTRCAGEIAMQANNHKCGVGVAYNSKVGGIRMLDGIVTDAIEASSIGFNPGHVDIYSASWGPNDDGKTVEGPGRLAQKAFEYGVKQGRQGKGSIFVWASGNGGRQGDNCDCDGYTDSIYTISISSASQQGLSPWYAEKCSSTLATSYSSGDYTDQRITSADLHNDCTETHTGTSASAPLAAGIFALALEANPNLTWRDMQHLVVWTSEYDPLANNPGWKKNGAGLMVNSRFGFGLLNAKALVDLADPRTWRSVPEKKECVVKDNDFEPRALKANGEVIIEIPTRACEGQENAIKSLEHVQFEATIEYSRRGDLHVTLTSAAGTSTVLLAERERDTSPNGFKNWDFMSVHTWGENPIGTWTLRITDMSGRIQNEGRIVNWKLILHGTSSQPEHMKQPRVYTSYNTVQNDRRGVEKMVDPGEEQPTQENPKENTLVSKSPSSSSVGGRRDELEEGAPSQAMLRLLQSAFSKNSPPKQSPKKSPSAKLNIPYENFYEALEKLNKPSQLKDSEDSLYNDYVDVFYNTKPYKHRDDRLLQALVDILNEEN

[4] = target: T3, PCSK7 (R&D Systems) (UniProt Q16549 142-667, limits assumed); assay: as above
T3 sequence (looked up): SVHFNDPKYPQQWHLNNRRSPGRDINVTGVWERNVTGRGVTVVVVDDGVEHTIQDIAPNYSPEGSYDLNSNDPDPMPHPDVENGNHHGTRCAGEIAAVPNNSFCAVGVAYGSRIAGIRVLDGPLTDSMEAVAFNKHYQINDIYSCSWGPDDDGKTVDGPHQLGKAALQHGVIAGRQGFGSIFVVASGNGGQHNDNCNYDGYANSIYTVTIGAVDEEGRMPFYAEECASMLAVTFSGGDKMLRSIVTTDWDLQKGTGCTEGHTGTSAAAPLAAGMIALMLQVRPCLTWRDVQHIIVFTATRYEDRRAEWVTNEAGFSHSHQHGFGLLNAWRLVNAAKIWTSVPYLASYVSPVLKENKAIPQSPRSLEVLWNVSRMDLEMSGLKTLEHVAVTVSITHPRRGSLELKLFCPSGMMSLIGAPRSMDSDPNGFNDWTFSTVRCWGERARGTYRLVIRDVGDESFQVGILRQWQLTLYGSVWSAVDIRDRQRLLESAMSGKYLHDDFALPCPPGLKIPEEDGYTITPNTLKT

[5] = target: T1, cynomolgus monkey PCSK9, V5- and …; assay: KinExA solution equilibrium; free antibody captured on PCSK9-coated beads; cPCSK9 concentration adjusted to 50% active
From the text: (§1) Equilibrium dissociation constant (KD) were obtained from nonlinear regression of the two sets of competition curves using a one-site homogeneous binding model. The KinExA® Pro software was employed in the analysis.

[6] = target: T1, cynomolgus monkey PCSK9, V5- and …; assay: as above; remark: listed apart in the source
From the text: as §1

B2: 11F1 anti-PCSK9 antibody (antibody, V domains shown)
VH: EVQLVESGGGLVQPGGSLRLSCAASGFTFSNYWMSWVRQAPGKGLEWVASIKQDGSEKYYVDSVKGRFAISRDNAKNSLFLQMNSLRAEDTAVYYCARDLVLMVYDIDYYYYGMDVWGQGTTVTVSS
VL: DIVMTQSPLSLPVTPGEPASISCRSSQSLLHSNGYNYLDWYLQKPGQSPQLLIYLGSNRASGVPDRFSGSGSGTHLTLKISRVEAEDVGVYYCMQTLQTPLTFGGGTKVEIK
notes: It was detected with anti-human Fc, so it is a whole human antibody
binding result [3]: no binding (tested: 0 to 20 µg/mL) | binding result [4]: no binding (tested: 0 to 20 µg/mL)

B4: 16F12 anti-PCSK9 human IgG4 antibody (antibody, V domains shown)
VH: QVHLVESGGGVVQPGRSLRLSCAASGFTFNSFGMHWVRQAPGKGLEWVALIWSDGSDEYYADSVKGRFTISRDNSKNTLYLQMNSLRAEDTAVYYCARAIAALYYYYGMDVWGQGTTVTVSS
VL: QSVLTQPPSVSAAPGQKVTISCSGSSSNIGNNFVSWYQQLPGTAPKLLIYDYNKRPSGIPDRFSGSKSGTSATLGITGLQTGDEADYYCGTWDSSLSAYVFGTGTRVTVLQ
notes: also called 16F12.1; 16F12, anti-PCSK9 huIgG4
Kd [1]: 0.87 nM | Kd [6]: 0.016 nM

Now from value to binder:

Kd [1]: 0.36 nM | Kd [2]: 0.011 nM
B1: 21B12 anti-PCSK9 human IgG4 antibody (from hybridoma) (antibody, V domains shown)
VH: QVQLVQSGAEVKKPGASVKVSCKASGYTLTSYGISWVRQAPGQGLEWMGWVSFYNGNTNYAQKLQGRGTMTTDPSTSTAYMELRSLRSDDTAVYYCARGYGMDVWGQGTTVTVSS
VL: QSALTQPASVSGSPGQSITISCTGTSSDVGGYNSVSWYQQHPGKAPKLMIYEVSNRPSGVSNRFSGSKSGNTASLTISGLQAEDEADYYCNSYTSTSMVFGGGTKLTVLQ
notes: also called 21B12.1; 21B12 IgG4

Kd [1]: 0.19 nM | Kd [5]: 0.002 nM
B3: 31H4 anti-PCSK9 human IgG4 antibody (from hybridoma) (antibody, V domains shown)
VH: EVQLVESGGGLVKPGGSLRLSCAASGFTFSSYSMNWVRQAPGKGLEWVSSISSSSSYISYADSVKGRFTISRDNAKNSLYLQMNSLRAEDTAVYFCARDYDFWSAYYDAFDVWGQGTMVTVSS
VL: QSVLTQPPSVSGAPGQRVTISCTGSSSNIGAGYDVHWYQQLPGTAPKLLISGNSNRPSGVPDRFSGSKSGTSASLAITGLQAEDEADYYCQSYDSSLSGSVFGGGTKLTVLQ
notes: also called 31H4.1; 31H4 IgG4
